Target: AetD nitrile synthase (Aetokthonos hydrillicola)
Experiment: SEC; Superdex 200 10/300 GL; 100 uL of 10 mg/mL AetD in 25 mM Tris-HCl pH 7.5, 150 mM NaCl; flow rate 0.2 mL/min; mass estimated from protein markers

AetD nitrile synthase (from UniProt A0A861B387 1-239) (enzyme)
stoichiometry N: 2

Reference: article PMC10654658, “The structural and functional investigation into an unusual nitrile synthase” (Nature Communications, 2023)
